Results from US20030195338A1.

Experiments:
TNFβ = target: T1, TNFβ (UniProt P01374); experiment: cell-based or functional assay
T1 sequence (looked up): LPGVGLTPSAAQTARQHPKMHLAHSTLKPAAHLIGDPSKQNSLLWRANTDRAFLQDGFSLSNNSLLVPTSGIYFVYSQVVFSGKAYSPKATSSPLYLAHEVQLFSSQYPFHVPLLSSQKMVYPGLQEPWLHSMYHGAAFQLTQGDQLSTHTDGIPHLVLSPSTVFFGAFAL

TNFα = TNFα (UniProt P01375); experiment: cell-based or functional assay
Chain of TNFα (P01375 77-233 limits assumed): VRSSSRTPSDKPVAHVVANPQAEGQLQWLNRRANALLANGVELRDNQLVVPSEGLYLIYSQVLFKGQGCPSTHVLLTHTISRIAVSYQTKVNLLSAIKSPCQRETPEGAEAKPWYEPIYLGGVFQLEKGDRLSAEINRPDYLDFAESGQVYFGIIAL

Chain of concatameric fusion dimeric protein [TNFR2-TNFR2/Fc]2 (Fc fusion) (chain): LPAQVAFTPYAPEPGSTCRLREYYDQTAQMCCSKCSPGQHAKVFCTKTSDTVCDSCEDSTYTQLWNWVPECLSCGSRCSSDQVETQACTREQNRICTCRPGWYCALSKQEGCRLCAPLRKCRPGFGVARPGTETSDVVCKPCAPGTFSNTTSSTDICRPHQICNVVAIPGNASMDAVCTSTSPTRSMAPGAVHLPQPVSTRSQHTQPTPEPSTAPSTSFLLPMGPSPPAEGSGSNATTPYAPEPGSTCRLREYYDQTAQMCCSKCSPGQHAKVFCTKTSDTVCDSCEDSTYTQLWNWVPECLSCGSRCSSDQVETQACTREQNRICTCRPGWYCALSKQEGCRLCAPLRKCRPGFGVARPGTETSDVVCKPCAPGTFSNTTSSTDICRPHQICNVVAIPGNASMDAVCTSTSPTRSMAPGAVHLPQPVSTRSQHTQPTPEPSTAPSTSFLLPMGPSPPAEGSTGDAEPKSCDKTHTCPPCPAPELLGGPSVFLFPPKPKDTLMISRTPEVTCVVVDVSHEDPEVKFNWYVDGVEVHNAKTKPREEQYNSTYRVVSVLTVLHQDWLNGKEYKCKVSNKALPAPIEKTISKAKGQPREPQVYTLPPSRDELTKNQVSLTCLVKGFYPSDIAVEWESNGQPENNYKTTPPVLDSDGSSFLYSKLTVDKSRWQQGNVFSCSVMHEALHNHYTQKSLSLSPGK
Chain of simple fusion dimeric protein [TNFR1/Fc]2 (Fc fusion) (chain): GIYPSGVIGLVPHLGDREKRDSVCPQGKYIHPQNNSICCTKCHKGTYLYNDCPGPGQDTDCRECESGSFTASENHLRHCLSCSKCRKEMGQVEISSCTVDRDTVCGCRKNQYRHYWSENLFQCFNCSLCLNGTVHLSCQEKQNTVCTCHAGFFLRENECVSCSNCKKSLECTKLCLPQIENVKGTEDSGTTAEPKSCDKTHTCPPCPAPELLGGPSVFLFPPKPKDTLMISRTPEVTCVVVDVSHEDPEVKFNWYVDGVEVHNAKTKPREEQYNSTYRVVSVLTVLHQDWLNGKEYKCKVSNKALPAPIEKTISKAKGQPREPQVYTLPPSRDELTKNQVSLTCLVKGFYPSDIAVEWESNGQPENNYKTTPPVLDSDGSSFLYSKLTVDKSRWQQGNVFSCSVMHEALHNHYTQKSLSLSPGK
Chain of simple fusion dimeric protein [TNFR2/Fc]2 (Fc fusion) (chain): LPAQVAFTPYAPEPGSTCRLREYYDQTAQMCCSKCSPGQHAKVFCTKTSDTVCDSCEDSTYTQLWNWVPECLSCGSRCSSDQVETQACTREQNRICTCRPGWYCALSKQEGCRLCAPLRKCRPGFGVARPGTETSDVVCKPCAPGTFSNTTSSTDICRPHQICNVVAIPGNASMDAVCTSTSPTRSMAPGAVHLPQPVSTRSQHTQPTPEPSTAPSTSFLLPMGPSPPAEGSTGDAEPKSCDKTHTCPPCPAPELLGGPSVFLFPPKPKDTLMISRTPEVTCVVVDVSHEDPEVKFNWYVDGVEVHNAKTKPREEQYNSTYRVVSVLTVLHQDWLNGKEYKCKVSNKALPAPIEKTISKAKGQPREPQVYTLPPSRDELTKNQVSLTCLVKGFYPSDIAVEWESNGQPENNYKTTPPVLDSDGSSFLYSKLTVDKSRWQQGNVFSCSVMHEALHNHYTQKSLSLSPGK
Chain of concatameric fusion dimeric protein [TNFR1-TNFR1/Fc]2 (Fc fusion) (chain): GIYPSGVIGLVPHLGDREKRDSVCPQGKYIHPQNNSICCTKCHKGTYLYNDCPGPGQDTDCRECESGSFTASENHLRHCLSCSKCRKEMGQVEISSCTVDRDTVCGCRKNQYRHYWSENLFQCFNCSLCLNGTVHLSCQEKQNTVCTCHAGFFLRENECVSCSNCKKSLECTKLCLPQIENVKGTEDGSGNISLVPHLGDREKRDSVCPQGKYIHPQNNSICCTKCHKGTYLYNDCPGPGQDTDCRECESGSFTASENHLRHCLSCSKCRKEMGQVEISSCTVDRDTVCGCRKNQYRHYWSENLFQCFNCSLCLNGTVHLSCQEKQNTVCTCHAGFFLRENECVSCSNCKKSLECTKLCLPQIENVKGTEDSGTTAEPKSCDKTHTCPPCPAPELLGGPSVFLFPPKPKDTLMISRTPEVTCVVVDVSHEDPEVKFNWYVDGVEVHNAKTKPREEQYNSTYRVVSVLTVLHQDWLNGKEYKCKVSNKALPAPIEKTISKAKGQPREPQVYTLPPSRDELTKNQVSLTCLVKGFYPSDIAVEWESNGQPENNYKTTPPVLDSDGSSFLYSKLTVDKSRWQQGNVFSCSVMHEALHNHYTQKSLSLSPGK

| Substance | IC50 of cytotoxicity inhibition, L929 cells, TNFβ treated (TNFβ) | IC50 of cytotoxicity inhibition, L929 cells, TNFα treated (TNFα) |
| --- | --- | --- |
| concatameric fusion dimeric protein [TNFR1-TNFR1/Fc]2 (Fc fusion) | 20 µg/mL | 9 µg/mL |
| concatameric fusion dimeric protein [TNFR2-TNFR2/Fc]2 (Fc fusion) | 15 µg/mL | 15 µg/mL |
| simple fusion dimeric protein [TNFR1/Fc]2 (Fc fusion) | 129 µg/mL | 63 µg/mL |
| simple fusion dimeric protein [TNFR2/Fc]2 (Fc fusion) | 469 µg/mL | 189 µg/mL |
